Data on 2 molecules can be found in patent US20110293599A1 (EWHA UNIVERSITY INDUSTRY COLLABORATION FOUNDATION, published 2011).

Assay [1] addresses T1, Flag-tagged TAZ (transcriptional coactivator with PDZ-binding motif), full length (1-395 aa) (Mus musculus (Mouse), UniProt Q9EPK5 1-395).
T1 construct: also called TAZ FL; Flag-TAZ; not shown: Flag tag
In words: co-immunoprecipitation from 293T cells, Flag-M2 beads, immunoblot.

The target in assay [2] is T2, Myc-tagged MyoD, full length 318 aa (FL) (UniProt P10085 1-318).
T2 construct: Overexpressed in 293T cells; also called MyoD FL; not shown: Myc tag from the pCMV-Myc vector
T2 sequence (looked up): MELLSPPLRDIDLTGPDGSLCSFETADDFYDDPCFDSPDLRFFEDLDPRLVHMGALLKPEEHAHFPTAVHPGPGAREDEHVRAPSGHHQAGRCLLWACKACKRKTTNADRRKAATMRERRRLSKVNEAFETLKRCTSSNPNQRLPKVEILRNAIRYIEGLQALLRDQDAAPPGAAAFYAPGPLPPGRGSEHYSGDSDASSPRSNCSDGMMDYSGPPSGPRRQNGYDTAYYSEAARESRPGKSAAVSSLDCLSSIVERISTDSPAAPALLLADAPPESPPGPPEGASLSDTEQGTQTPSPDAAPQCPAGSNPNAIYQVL
In words: co-immunoprecipitation from 293T cells, Flag-M2 beads, MyoD immunoblot.

B1: NT MyoD (MyoD aa 1-102), Myc-tagged (other, UniProt P10085 1-102, looked up)
chain: MELLSPPLRDIDLTGPDGSLCSFETADDFYDDPCFDSPDLRFFEDLDPRLVHMGALLKPEEHAHFPTAVHPGPGAREDEHVRAPSGHHQAGRCLLWACKACK
notes: Coexpressed with Flag-TAZ in 293T cells; not shown: Myc tag from the pCMV-Myc vector
For the molecule B1, in assay [1], the binding result is “no binding”.

B2: TAZ truncation ΔN2 (aa 164-395 TAZ), lacking the WW domain (other)
chain: NHVNLHPSITSTSVPQRSMAVSQPNLAMNHQHQQVVATSLSPQNHPTQNQPTGLMSVPNALTTQQQQQQKLRLQRIQMERERIRMRQEELMRQEAALCRQLPMETETMAPVNTPAMSTDMRSVTNSSSDPFLNGGPYHSREQSTDSGLGLGCYSVPTTPEDFLSNMDEMDTGENSGQTPMTVNPQQTRFPDFLDCLPGTNVDLGTLESEDLIPLFNDVESALNKSEPFLTWL
notes: Cotransfected with MyoD into 293T cells; not shown: Flag tag, implied by the precipitation with Flag-M2 beads
Turning to B2, the binding result in assay [2] is “no binding”.
